# Assay results: article PMC8766471, “Mutations affecting the N-terminal domains of SHANK3 point to different pathomechanisms in neurodevelopmental disorders” (Scientific Reports, 2022)
# B1: Shank3 Ank repeats (residues 99-348), WT, recombinant (domain or fragment, rat, UniProt Q9JLU4 99-348, looked up)
# chain: QNLIDDKQFAKLHTKANLKKFMDYVQLHSTDKVARLLDKGLDPNFHDPDSGECPLSLAAQLDNATDLLKVLRNGGAHLDFRTRDGLTAVHCATRQRNAGALTTLLDLGASPDYKDSRGLTPLYHSALGGGDALCCELLLHDHAQLGTTDENGWQEIHQACRFGHVQHLEHLLFYGANMGAQNASGNTALHICALYNQESCARVLLFRGANKDVRNYNSQTAFQVAIIAGNFELAEVIKTHKDSDVVPFRE
# notes: Shank3, rat, Ank repeats, residues 99-348; expressed from pET-SUMO; also called WT Ank; WT Ank domain; source: E. coli BL21*(DE3), purified (HisTrap HP, SUMO protease, reverse HisTrap pass)
# B2: isolated SPN domain of Shank3, recombinant (domain or fragment, rat, UniProt Q9JLU4 1-92, looked up)
# chain: MDGPGASAVVVRVGIPDLQQTKCLRLDPTAPVWAAKQRVLCALNHSLQDALNYGLFQPPSRGRAGKFLDEERLLQDYPPNLDTPLPYLEFRY
# notes: Shank3 SPN domain, isolated; the methods of expression list only residues 1-348 and 99-348; also called WT SPN
# Columns and labels:
# [1] = molecular target: B2; experiment: ITC; 25 °C; 20 mM Tris pH 7.5, 1 M NaCl, 0.5 mM TCEP; 25 µM SPN in the cell, 400 µM WT Ank or P141A Ank in the syringe; single-site-binding model; settings: both partners purified
# [2] = molecular target: B1; experiment: as above; settings: both partners purified
dH [1],Kd [2],Binder
-3.7 kcal/mol,–,B1
–,19 µM,B2
